What all share (type): biochemical
One assay concerns the target T1, PKA (Homo sapiens, UniProt P17612).
T1 construct: purchased Millipore (radiometric assay service)
Put plainly: Millipore radiometric kinase activity assay, PKA (h). Here is the method: (§1) A commercial radiometric assay service (Millipore, Billerica, Mass.) was used to test the specificity and potency of peptides containing a coupled transduction domain and therapeutic domain, hereinafter “complete peptides”). In these assays, if the kinase is not inhibited by an inhibitor peptide, a positively charged substrate is phosphorylated with a radiolabeled phosphate group from an ATP.
(§2) In a final reaction volume of 25 μL, PKA (h) (5-10 mU) is incubated with 8 mM MOPS pH 7.0, 0.2 mM EDTA, 30 μM LRRASLG [SEQ ID NO: 50] (Kemptide), 10 mM MgAcetate and [γ-^33P-ATP] (specific activity approx. 500 cpm/pmol, concentration as required). The reaction is initiated by the addition of the MgATP mix. After incubation for 40 minutes at room temperature, the reaction is stopped by the addition of 5 μL of a 3% phosphoric acid solution, 10 μL of the reaction is then spotted onto a P30 filtermat and washed three times for 5 minutes in 50 mM phosphoric acid and once in methanol prior to drying and scintillation counting.
(§3) IC50 values for inhibitor peptides were determined using Millipore's IC50Profiler Express service. The IC50 value was estimated from a 10-point curve of one-half log dilutions. For peptides tested for specificity, the concentration of the peptides that inhibited approximately 95% of MK2 activity was chosen to profile against a battery of kinases related to MK2, cell viability, or human disease from MilliporeKinaseProfiler service. In both assays, compounds were supplied in dimethylsulfoxide (DMSO). Every kinase activity measurement was conducted in duplicate.
(§4) Therapeutic inhibitor peptides were assayed for activity against human kinases related to MK2, cell viability, or human disease. The assays were performed using concentrations of therapeutic inhibitor peptides that yielded 2% to 8% of normal MK2 activity. Error is reported as the standard deviation between 2 samples, and “c” is rat AMPK whereas all other kinases used are human kinases.

A further assay deals with T2, Aurora-A (Homo sapiens, UniProt O14965).
T2 construct: purchased Millipore (assay service)
T2 sequence (O14965 1-403): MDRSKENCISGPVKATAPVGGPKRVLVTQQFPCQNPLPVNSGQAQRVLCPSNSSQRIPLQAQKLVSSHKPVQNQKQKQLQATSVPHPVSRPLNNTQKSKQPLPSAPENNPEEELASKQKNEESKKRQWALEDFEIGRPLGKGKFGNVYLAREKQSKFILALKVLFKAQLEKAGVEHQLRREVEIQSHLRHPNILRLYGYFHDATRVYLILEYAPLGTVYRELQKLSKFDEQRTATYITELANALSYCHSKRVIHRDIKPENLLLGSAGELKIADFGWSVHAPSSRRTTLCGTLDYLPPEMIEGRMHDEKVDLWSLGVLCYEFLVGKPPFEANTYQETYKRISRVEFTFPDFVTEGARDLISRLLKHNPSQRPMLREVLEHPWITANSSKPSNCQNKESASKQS
Briefly: Millipore radiometric kinase activity assay, Aurora-A (h). Here is the method: as §1
as §2, with “μL, Aurora-A” for “μL, PKA”, “EDTA, 200” for “EDTA, 30”, “acid solution.” for “acid solution,”
as §3, §4

For a further assay, the target named is T3, DYRK2 (Homo sapiens, UniProt Q92630).
T3 construct: purchased Millipore (assay service)
T3 sequence (Q92630 1-601): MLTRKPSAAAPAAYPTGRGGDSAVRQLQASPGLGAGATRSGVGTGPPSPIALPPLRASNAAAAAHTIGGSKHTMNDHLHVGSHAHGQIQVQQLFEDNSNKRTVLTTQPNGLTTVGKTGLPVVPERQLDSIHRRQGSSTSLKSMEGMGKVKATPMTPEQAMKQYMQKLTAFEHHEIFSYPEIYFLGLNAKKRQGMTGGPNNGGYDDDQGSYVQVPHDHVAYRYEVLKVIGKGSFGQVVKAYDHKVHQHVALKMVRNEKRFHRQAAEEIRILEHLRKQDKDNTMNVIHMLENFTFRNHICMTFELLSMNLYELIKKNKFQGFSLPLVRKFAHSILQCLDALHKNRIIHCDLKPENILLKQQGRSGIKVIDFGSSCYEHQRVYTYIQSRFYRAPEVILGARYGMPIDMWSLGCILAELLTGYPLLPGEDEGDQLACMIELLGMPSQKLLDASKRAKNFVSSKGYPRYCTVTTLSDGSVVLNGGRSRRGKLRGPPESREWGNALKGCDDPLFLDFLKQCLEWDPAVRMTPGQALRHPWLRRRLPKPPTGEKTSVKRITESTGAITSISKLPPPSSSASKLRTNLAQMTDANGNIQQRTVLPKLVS
Briefly: Millipore radiometric kinase activity assay, DYRK2 (h). As to the method: as §1
as §2, with “25 μL, DYRK2 (h) (5-10” for “25 μL, PKA (h) (5-10”, “mM EDTA, 2 mg/mL casein, 10 mM” for “mM EDTA, 30 μM LRRASLG [SEQ ID NO: 50] (Kemptide), 10 mM”, “of 5 μL, of a” for “of 5 μL of a”, “phosphoric acid solution. 10 μL” for “phosphoric acid solution, 10 μL”, “minutes in 75 mM phosphoric” for “minutes in 50 mM phosphoric”
as §3, §4

The target in another assay is T4, Pim-1 (Homo sapiens, UniProt P11309).
T4 construct: purchased Millipore (radiometric assay service)
Put plainly: Millipore radiometric kinase activity assay, Pim-1 (h). As to the method:
as §1
as §2, with “μL, Pim-1” for “μL, PKA”, “EDTA, 100” for “EDTA, 30”, “μM […]” for “μM LRRASLG”, “NO: 59],” for “NO: 50] (Kemptide),”, “acid solution.” for “acid solution,”, “in 75” for “in 50”
as §3, §4

T4 sequence (P11309 whole entry): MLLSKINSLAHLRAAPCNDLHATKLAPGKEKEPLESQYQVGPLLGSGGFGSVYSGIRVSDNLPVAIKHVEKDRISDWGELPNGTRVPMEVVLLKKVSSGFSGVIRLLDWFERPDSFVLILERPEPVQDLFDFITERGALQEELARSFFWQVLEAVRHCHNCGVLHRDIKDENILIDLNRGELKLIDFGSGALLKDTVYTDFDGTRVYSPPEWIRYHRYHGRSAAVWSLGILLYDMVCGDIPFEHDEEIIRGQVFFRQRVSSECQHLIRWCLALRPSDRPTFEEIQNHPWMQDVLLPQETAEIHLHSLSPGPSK

Take KAFAKLAARLYRKALARQLGVAA: the “PKA Kinase Activity (%) (+SD %)” value in the assay with PKA (peptide 100 μM) is on record as 103 (1) %. In the assay with Aurora-A (peptide 100 μM), the “Aurora-A Kinase Activity (%) (+SD %)” value is 60 (1) %. Moreover, the “DYRK2 Kinase Activity (%) (+SD %)” value with DYRK2 (peptide 100 μM) is −10 (0) %. In addition, in the assay with Pim-1 (peptide 100 μM), the “Pim-1 Kinase Activity (%) (+SD %)” value is on record as 1 (2) %.
As for WLRRIKAWLRRIKALNRQLGVAA, the figures for the “PKA Kinase Activity (%) (+SD %)” value with PKA (peptide 30 μM) and with PKA (peptide 100 μM) were 80 (1) % and 76 (8) %, respectively. For the same sequence, the “Aurora-A Kinase Activity (%) (+SD %)” value with Aurora-A (peptide 30 μM) was 46 (1) %; with Aurora-A (peptide 100 μM), 65 (5) %. Besides, the “DYRK2 Kinase Activity (%) (+SD %)” value is reported as 93 (8) % with DYRK2 (peptide 30 μM) and −11 (1) % in the assay with DYRK2 (peptide 100 μM). The “Pim-1 Kinase Activity (%) (+SD %)” value with Pim-1 (peptide 30 μM) was 5 (1) %; with Pim-1 (peptide 100 μM) it was 1 (0) %.

(Values after patent publication US9327008B2, “Cell-permeant peptide-based inhibitor of kinases” (Purdue Research Foundation, priority 2008, dated 2016).)
